Assay [1] deals with S protein of authentic SARS-CoV-2 variant D614G, on virus (SARS-CoV-2) (UniProt P0DTC2). Put plainly: cell-based or functional assay.
Assay [2] concerns the target S protein of authentic (isogenic) SARS-CoV-2 variant B.1.351, on virus (SARS-CoV-2) (UniProt P0DTC2). In words: cell-based or functional assay.

For the substance IgG REGN10933 (antibody), the IC50, focus reduction neutralization test in assay [1] was 10 ng/mL; in assay [2], over 1000 ng/mL.

The values are drawn from patent US20240182549A1, “PEPTIDES AND ANTIBODY FUSIONS THAT BIND TO SARS-COV-2 AND METHODS OF USING SAME” (priority 2021, published 2024).
